Experiments:
[1] = biological target: T1, human N-cadherin naturally expressed on DX3 melanoma cells (human, UniProt P19022 160-906); assay: adhesion of DX3 cells to coated N-cadherin-Fc
T1 construct: also called DX3 Cells; N-cadherin+ve DX3 melanoma cells
T1 sequence: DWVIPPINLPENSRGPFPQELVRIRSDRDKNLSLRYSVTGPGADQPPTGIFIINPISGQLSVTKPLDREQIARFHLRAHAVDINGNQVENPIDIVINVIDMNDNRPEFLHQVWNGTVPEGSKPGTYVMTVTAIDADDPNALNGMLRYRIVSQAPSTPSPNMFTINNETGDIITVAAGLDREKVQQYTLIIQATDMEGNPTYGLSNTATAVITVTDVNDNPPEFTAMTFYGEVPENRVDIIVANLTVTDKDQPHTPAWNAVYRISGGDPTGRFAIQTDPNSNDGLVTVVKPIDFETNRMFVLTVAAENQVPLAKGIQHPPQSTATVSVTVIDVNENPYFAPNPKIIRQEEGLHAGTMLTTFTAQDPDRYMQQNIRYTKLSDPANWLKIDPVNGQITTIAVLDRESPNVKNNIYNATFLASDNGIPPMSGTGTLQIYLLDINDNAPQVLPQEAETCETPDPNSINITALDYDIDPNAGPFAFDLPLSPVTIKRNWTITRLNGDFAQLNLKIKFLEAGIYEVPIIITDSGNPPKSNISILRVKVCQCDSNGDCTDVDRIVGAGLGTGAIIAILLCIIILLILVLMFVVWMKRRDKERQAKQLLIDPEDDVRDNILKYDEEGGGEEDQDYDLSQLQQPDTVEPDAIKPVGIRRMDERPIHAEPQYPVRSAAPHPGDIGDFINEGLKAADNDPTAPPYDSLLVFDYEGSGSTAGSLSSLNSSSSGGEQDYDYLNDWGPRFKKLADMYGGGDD
Experimental: Monomeric or dimeric N-cadherin-Fc fusion protein in Cos cell supernatants was added as described for the ELISA assay. DX3 Cells, a human melanoma cell line which expresses N-cadherin, were dissociated with Cell Dissociation Solution (Sigma, code C5789), resuspended in HBSS with 2% FCS and assessed for adhesion to wild type or mutant N-cadherin-Fc as previously described (Corps et al., 2001). Microscopic examination established that the cells were present as a single cell suspension as they settled onto the plate. For assays conducted in reducing conditions, 10 mM DTT was present during the adhesion and washing steps. Determinations were conducted in triplicate and results are presented as mean +/−sem.

[2] = biological target: T2, mouse N-cadherin on L cells after removal of the prodomain with trypsin (mouse, UniProt P15116 160-906); assay: adhesion of trypsin-treated L cell transfectants to coated N-cadherin Fc
T2 construct: whole, on cells; Removal of the prodomain was almost complete by western blot; also called L cells after treatment; trypsin-treated L cell transfectants
T2 sequence (looked up): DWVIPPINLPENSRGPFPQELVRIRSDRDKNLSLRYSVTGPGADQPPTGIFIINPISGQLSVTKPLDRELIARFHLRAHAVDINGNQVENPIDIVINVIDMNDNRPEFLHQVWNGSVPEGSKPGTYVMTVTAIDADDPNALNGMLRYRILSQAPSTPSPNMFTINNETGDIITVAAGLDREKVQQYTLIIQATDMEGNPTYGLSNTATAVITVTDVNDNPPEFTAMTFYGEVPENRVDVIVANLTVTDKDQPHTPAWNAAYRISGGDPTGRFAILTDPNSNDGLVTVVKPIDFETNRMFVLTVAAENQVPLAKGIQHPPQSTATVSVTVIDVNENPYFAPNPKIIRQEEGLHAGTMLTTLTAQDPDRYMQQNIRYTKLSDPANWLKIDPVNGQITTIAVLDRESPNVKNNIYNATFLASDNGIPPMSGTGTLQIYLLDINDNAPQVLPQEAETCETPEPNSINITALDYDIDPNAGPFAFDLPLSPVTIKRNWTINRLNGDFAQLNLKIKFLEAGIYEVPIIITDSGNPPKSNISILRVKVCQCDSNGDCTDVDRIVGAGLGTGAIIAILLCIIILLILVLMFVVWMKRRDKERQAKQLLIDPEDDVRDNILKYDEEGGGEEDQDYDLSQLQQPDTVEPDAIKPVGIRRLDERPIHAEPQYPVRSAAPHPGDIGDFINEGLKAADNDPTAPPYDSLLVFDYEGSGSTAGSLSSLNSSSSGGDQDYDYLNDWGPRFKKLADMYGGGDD
Experimental: Adhesion tests were conducted substantially as described in Example 1. Briefly, K562 Cells or L cells transfected with wild type or mutant N-cadherin were allowed to settle for 45 minutes at 37° C. onto N-cadherin Fc fusion proteins coated at 1 μg/ml to a 96 well plate. Non-adherent cells were then washed off and residual adherent cells were quantitated by measuring acid phosphatase activity. Assays were conducted in quadruplicate and results are expressed as % cells adhering +/−SEM.
L cells expressing mouse N-cadherin with an uncleaved prodomain (see Koch et al., 2004) were obtained from Dr Weisong Shan (Montreal Neurological Institute). The normal furin cleavage site, RQKR, had been replaced with a Factor Xa site, IEGR, to give the correct N-terminus after digestion. […] L cells suspended in HBSS containing 0.1% BSA were treated with 0.01% trypsin (Sigma, Type XI) in the presence of 2 mM Ca²⁺ for 10 minutes at 37° C. and the digestion was then quenched with soyabean trypsin inhibitor, 0.5 mg per ml (Sigma, Type I-S). Cells were then washed and tested for adhesion to N-cadherin Fc-fusion protein. To check for complete removal of the prodomain, the cells were lysed in SDS sample buffer and the cadherin analysed by SDS PAGE under reducing conditions on a 4-12% gradient gel. […]

B1: wild type chicken N-cadherin-Fc fusion protein, dimeric (linked by disulphide bonds at the Ig hinge region) (Fc fusion, UniProt P10288 165-729, looked up)
chain: DWVIPPINLPENSRGPFPQELVRIRSDRDKSLSLRYSVTGPGADQPPTGIFIINPISGQLSVTKPLDREQIASFHLRAHAVDVNGNQVENPIDIVINVIDMNDNRPEFLHQVWNGTVPEGSKPGTYVMTVTAIDADDPNAQNGMLRYRILSQAPSSPSPNMFTINNETGDIITVAAGLDREKVQQYTLIIQATDMEGNPTYGLSNTATAVITVTDVNDNPPEFTAMTFYGEVPENRVDVIVANLTVTDKDQPHTPAWNARYQMTGGDPTGQFTILTDPNSNDGLVTVVKPIDFETNRMFVLTVAAENQVPLAKGIQHPPQSTATVSITVIDVNESPYFVPNPKLVRQEEGLLAGSMLTTFTARDPDRYMQQTSLRYSKLSDPANWLKIDPVNGQITTTAVLDRESIYVQNNMYNATFLASDNGIPPMSGTGTLQIYLLDINDNAPQVNPKEATTCETLQPNAINITAVDPDIDPNAGPFAFELPDSPPSIKRNWTIVRISGDHAQLSLRIRFLEAGIYDVPIVITDSGNPHASSTSVLKVKVCQCDINGDCTDVDRIVGAGLGTG
notes: extracellular domain; also called dimeric N-cadherin-Fc; wild type N-cadherin; not shown: hinge region, CH2 and CH3 domains of human IgG1 heavy chain (vector pIgSig)
binding result [1]: binds
binding result [2]: binds

From patent publication US20080274950A1 (BABRAHAM INSTITUTE, published 2008)
